Test results: PMC8278588, “Biodegradation of flonicamid by Ensifer adhaerens CGMCC 6315 and enzymatic characterization of the nitrile hydratases involved” (Microbial Cell Factories, 2021)

Test system: N#CCNC(=O)c1cnccc1C(F)(F)F
Assay: purified protein
Details: 37 °C, 10 min, pH of kinetics not stated, hydration to TFNG-AM

Substance | Km | Vmax
CnhA (Ensifer adhaerens) | 5.07 mM | 9.55 µmol/min/mg
PnhA (Ensifer adhaerens) | 2.96 mM | 88.7 µmol/min/mg
